Results on one molecule are retold here after US20130274185A1, “Pharmaceutical for Pseudo-Exercise Therapy” (THE UNIVERSITY OF TOKYO, priority 2010, published 2013).

Data set [1] is described as follows: Plasma adiponectin level after intravenous adiponectin injection. Format: in vivo, mice. To be noted: 30 μg recombinant murine adiponectin per 10 g body weight, intravenously. The source says: (§1) Mouse full-length adiponectin was generated as described in the following documents (Nature Med. 8, 1288-1295 (2002); Nature Med. 7, 941-946 (2001); Nature 423, 762-769 (2003)).

The test system of another data set is PGC-1α (Ppargc1a). In words: Ppargc1a mRNA levels in skeletal muscle in vivo. The following applies: control littermates; 30 μg per 10 g body weight, 10 min. Also on record: species or system mice. The method, then:
as §1
Real-time PCR was carried out according to the method described in the following documents (Nature Med. 13, 332-339 2007); Nature 423, 762-769 (2003); J. Biol. Chem. 281, 8748-8755 (2006)). Total RNA was prepared from cells or tissues by using Trizol (Invitrogen) according to the manufacturer's instructions. Quantification of mRNA was conducted using a real-time PCR method (Nature 423, 762-769 (2003)) with slight modifications. The procedures used for immunoblotting are described in the following documents (Nature Med. 7, 941-946 (2001); J. Biol. Chem. 281, 26602-26614 (2006); J. Biol. Chem. 281, 8748-8755 (2006)). The livers or muscles were freeze-clamped in liquid nitrogen in situ (Nature Med. 7, 941-946 (2001); J. Biol. Chem. 281, 26602-26614 (2006); J. Biol. Chem. 281, 8748-8755 (2006)).

The subject of data set [2] is C2C12 myocytes. In words: Mitochondrial content assay in C2C12 myocytes. The class given is cell-based, mouse. How it is done:
(§2) The mouse C2C12 myoblasts were grown in 90% Dulbecco's modified high glucose Eagle's medium containing 10% (v/v) fetal bovine serum. When the cells reached 80% confluent, the myoblasts were induced to differentiate into myocytes by replacing the medium with a low serum differentiation medium (98% Dulbecco's modified high glucose Eagle's medium, 2.5% (v/v) horse serum). The medium was changed daily. The C2C12 cells were transfected by using Pofectamine 2000 (Invitrogen) and following the manufacturer's instructions.
Mitochondrial content assays were carried out as described in the following document (Cell Metab. 4, 75-87 (2006)), with slight modifications. Quantification of the mitochondrial content was conducted by using mtDNA and MitoTracker Green probe (Molecular Probes) according to the method as described in the following document (Obes. Res. 13, 574-581 (2005)). MitoTracker Green probe preferentially accumulates in mitochondria regardless of the mitochondrial membrane potential and provides an accurate assessment of mitochondrial mass. Cells were washed with PBS and after addition of 100 nM MitoTracker Green FM (Molecular Probes), incubated at 37° C. for 30 min. Cells were harvested by using trypsin/EDTA and resuspended in PBS. Fluorescence intensity was detected with excitation and emission wavelengths of 490 and 516 nm, respectively, and the values thus measured were corrected for total protein (mg/ml).

For the next data set, the system named is PGC-1α. In words: PGC-1α acetylation in C2C12 myocytes. Format: cell-based, mouse. To be noted: treatment for 2 hr. The method, then: as §2
Data set [3] deals with C2C12 myocytes. In words: NAD+/NADH measurements in C2C12 myocytes. Format: cell-based, mouse. The method, then:
NAD^+ and NADH nucleotides were directly measured by the method described in the following document (Nature, 458, 1056-1060 (2009)). Whole skeletal muscles or two 10 cm dishes of C2C12 myocytes were homogenized in 200 μl of an acid extraction buffer to measure the NAD^+ concentration, or 200 μl of alkali extraction to obtain the NADH concentration. Next, homogenates were neutralized and the concentration of nucleotides was measured fluorimetrically after an enzymatic cycling reaction using 5 μl of a sample. Values for both nucleotides were detected within the linear range. NAD^+/NADH ratios were calculated by comparing the ratios obtained from each animal or from parallel cell dishes in each experiment.

Data set [4] has as its system C2C12 myocytes. In words: Calcium imaging in C2C12 myocytes (fura-2). Format: cell-based, mouse. How it is done: C212 myocytes cultured on glass base dishes (IWAKI) were treated with 2.5 μM fura-2/AM for 30 min. Fluorescence was measured with an Aquacosmos Calcium Imaging system (Hamamatsu Photonics). Ligands were delivered through the superfusing Ringer's solution (140 mM NaCl, 5.6 mM KCl, 5 mM HEPES, 2.0 mM sodium pyruvate, 1.25 mM KH2PO4, 2.0 mM CaCl2, 2.0 mM MgCl2, 9.4 mM D-glucose (pH 7.4)). For the calcium chelating experiment, EGTA solution (140 mM NaCl, 5.6 mM KCl, 5 mM HEPES, 2.0 mM sodium pyruvate, 1.25 mM KH2PO4, 2.0 mM MgCl2, 5.0 mM EGTA-2Na, 9.4 mM D-glucose (pH 7.4) was used for the bath solution. Fura-2 fluorescence ratios were calibrated to calcium ion signals.

Another data set relates to AMPK. In words: AMPK phosphorylation in C2C12 myocytes. Format: cell-based, mouse. The following applies: C2C12 myocytes, adiponectin 30 μg/ml. The method, then:
as §2

The test system of data set [5] is CaMKI. In words: CaMKI phosphorylation in skeletal muscle in vivo. Further details: species or system mice. To be noted: 30 μg per 10 g body weight, 5 min.
Source text: as §1

The test system of data set [6] is C2C12 myocytes. In words: Patch clamp test, whole-cell current in C2C12 myocytes. The class given is cell-based, mouse. To be noted: adiponectin 30 μg/ml 30 sec, holding potential -60 mV. The method, then: Whole-cell currents were amplified with a patch-clamp amplifier (CEZ-2400; Nihon Kohden) and were digitized with a PowerLab digitizer (AD Instruments). Ringer's solution was used for the extracellular solution. The electrode solution contained 140 mM KCl, 10 mM HEPES, 5 mM EGTA-2K, and 10 mM D-glucose (pH 7.4). The data were low-pass filtered at 2 kHz and were sampled at 20 kHz. Ligands dissolved in Ringer's solution were applied at least twice with a self-made pressure-ejection system and via a two-barreled glass capillary.

For data set [7], the system named is CaMKI. In words: CaMKI phosphorylation in C2C12 myocytes. The class given is cell-based, mouse. The following applies: adiponectin 30 μg/ml, 0-20 min. The method, then:
as §2

A further data set concerns HDAC5. In words: HDAC5 phosphorylation in C2C12 myocytes. The class given is cell-based, mouse. To be noted: adiponectin 30 μg/ml, 0-20 min. The method, then: as §2
Setting [8] is: C2C12 myocytes, 30 μg/ml adiponectin.

Entries after “also recorded” stand apart in the source; their conditions may differ.

B1: adiponectin (protein, UniProt Q60994 1-247, looked up)
chain: MLLLQALLFLLILPSHAEDDVTTTEELAPALVPPPKGTCAGWMAGIPGHPGHNGTPGRDGRDGTPGEKGEKGDAGLLGPKGETGDVGMTGAEGPRGFPGTPGRKGEPGEAAYVYRSAFSVGLETRVTVPNVPIRFTKIFYNQQNHYDGSTGKFYCNIPGLYYFSYHITVYMKDVKVSLFKKDKAVLFTYDQYQEKNVDQASGSVLLHLEVGDQVWLQVYGDGDHNGLYADNVNDSTFTGFLLYHDTN
modifications: full-length
notes: adipokine, internal ligand of adiponectin receptor 1; recombinant murine full-length adiponectin
As to B1, in data set [1], the plasma adiponectin levels result was “approximately 30 μg/ml”. In addition, the “expression levels of Ppargc1a in muscle” value in the data set with PGC-1α (Ppargc1a) is on record as “increased the expression levels of Ppargc1a in the muscle of control littermates”. Moreover, the mitochondrial biogenesis entry with C2C12 myocytes [2] (C2C12 myocytes expressing PGC-1α-R13 mutant) was “failed to further induce mitochondrial biogenesis”. In the data set on C2C12 myocytes [2] (setting [8]), the “amount of mitochondria as assessed by MitoTracker green” value is recorded as “increased” and the “mitochondrial DNA content” value was “increased a mitochondrial DNA content”. In addition, the PGC-1α acetylation result in the data set with PGC-1α is listed as “decreased PGC-1α acetylation”. For the same molecule, in the data set on C2C12 myocytes [3], the “NAD+ and NADH contents” value is listed as “increased”; the “NAD+/NADH ratio” value is “increased a NAD^+/NADH ratio; also recorded: increased the NAD^+/NADH ratio”. In addition, in the data set on C2C12 myocytes [4], the “dose dependence of calcium response” value is recorded as “dose-dependent responses”. The “intracellular calcium ion concentration (fura-2)” value with C2C12 myocytes [4] (adiponectin 30 μg/ml) is “increased an intracellular calcium ion concentration”. Moreover, the “phosphorylation of AMPK α-subunits at Thr 172” value in the data set with AMPK is listed as “increased the phosphorylation of the AMPK α-subunits at Thr 172”. Also, the “phosphorylation of CaMKI in skeletal muscle in vivo” value in the data set with CaMKI [5] is “significantly increased”. Moreover, the “whole-cell inward current response” value with C2C12 myocytes [6] was “Inward current responses to adiponectin were observed”. Further, the CaMKI phosphorylation result with CaMKI [7] was “rapid, robust, and transient increase”. Besides, in the data set on HDAC5, the HDAC5 phosphorylation result is on record as “increased HDAC5 phosphorylation”.
